Results taken from PMC9986708.

Columns and labels:
[1] = target: apolipoprotein E ɛ2 (apoE ɛ2) (human (endogenous in plasma)) (UniProt P02649); test: non-reducing SDS-PAGE with western blot
[2] = target: apolipoprotein E ɛ3 (apoE ɛ3) (human (endogenous in plasma)) (UniProt P02649); test: non-reducing SDS-PAGE with western blot

Row | Substance | stoichiometry N [1] | stoichiometry N [2]
1 | apolipoprotein E ɛ2 (apoE ɛ2) (from UniProt P02649 19-317) (natural protein) | 2 | –
2 | apolipoprotein E ɛ3 (apoE ɛ3) (from UniProt P02649 19-317) (natural protein) | – | 2
